Data set [1] deals with the molecule itself. Put plainly: crystal structure; Se-Met mL-GDH180 at 16.5 mg/ml with equimolar GarA; 100 mM sodium cacodylate pH 5.8, 12% v/v glycerol, 1.25 M (NH4)2SO4, 4 °C; two monomers in the asymmetric unit, tetramer by crystallographic symmetry; 6.27 Å.
Data set [2] deals with the molecule itself. Put plainly: cryo-EM structure; 0.3 mg/ml native mL-GDH180 on Quantifoil R2/2 grids; single-particle, D2 symmetry; open (4.19 Å) and closed (6.6 Å) tetramers.

B1: Se-Met mL-GDH180 (seleno-methionine derivative of the mycobacterial L-GDH180 from Mycobacterium smegmatis MC2-155) (enzyme, UniProt A0R1C2 1-1594, looked up)
chain: MIRRLSVAFLSTYRGPQADAPGVTSTGPLAVAAHDDLVSDDLVAAHYRLASMRAPGETKAAVYPGDAGSGAALQIVTDQAPMLVDSVTVLLHRHGIAYTAIMNPVFRVRRGLDGELLDVRPAAEAAPGDGADECWILVPITAAADGEALTEATRLVPGILAEARQIGLDSGAMIAALHGLANDLATDLEGHFPNAERKEVAALLRWLADGHFVLLGYQQCVVGDGNAEVDPASRLGVLRLRNDVLPPLTDSDDLLVLAQATMPSYLRYGAYPYIVVVRESPGASRVIEHRFVGLFTVAAMNANALEIPLISRRVEEALAMAHRDPSHPGQLLRDIIQTIPRPELFALSSKQLLEMALAVVDLGSRRRTLLFLRADHLAHFVSCLVYLPRDRYTTAVRLEMQDILVRELGGAGIDYSARVSESPWAVVHFTVRLPEGTAADSVDTSLENESRIQDLLTEATRNWGDRMISAAAAASISPAALEHYAHAFPEDYKQAFAPQDAIADISLIEALQDDSVKLVLADTAEDRVWKLTWYLGGHSASLSELLPMLQSMGVVVLEERPFTLRRTDGLPVWIYQFKISPHPSIPHAPDAEAQRDTAQRFADAVTAIWHGRVEIDRFNELVMRAGLTWQQVVVLRAYAKYLRQAGFPYSQSHIESVLNENPHTTRSLIDLFEALFDPSQETDGRRDAQGAAAAVAADIDALVSLDTDRVLRAFANLIEATLRTNYFVARPDSARARNVLAFKLNPLVIKELPLPRPKFEIFVYSPRVEGVHLRFGFVARGGLRWSDRREDFRTEILGLVKAQAVKNAVIVPVGAKGGFVVKRPPTLTGDAAADREATRAEGVECYRLFISGLLDVTDNVDKATGAVVTPPEVVRRDGEDAYLVVAADKGTATFSDIANEVAKSYGFWLGDAFASGGSIGYDHKAMGITAKGAWESVKRHFREMGVDTQTQDFTVVGIGDMSGDVFGNGMLLSKHIRLVAAFDHRDIFLDPNPDAGRSWDERKRLFDLPRSSWADYDKSLISEGGGVYSRQQKSIPISPQVRTALGLDADVEELTPPALIKAILKAPVDLLWNGGIGTYIKAETEADADVGDRANDQIRVCGNQVRAKVIGEGGNLGVTALGRIEFDLAGGRINTDALDNSAGVDCSDHEVNIKILIDSAVTAGKVTPEERTELLLSMTDEVGELVLADNRDQNDLMGTSRANAASLLSVHARMIKDLVDNRGLNRELEALPSEKEIRRRADAGIGLTSPELATLMAHVKLALKDDVLASDLPDQEVFASRLPYYFPTRLREELHGEIRSHQLRREIITTMLVNDLVDTAGISYAYRITEDVGVGPVDAVRSYVAINAIFGIGDVWRRIRAAGDAGVPTSVTDRMTLDLRRLVDRAGRWLLNYRPQPLAVGAEINRFGAKVAALTPRMSEWLRGDDKAIVSKEAGDFASHGVPEDLAYHIATGLYQYSLLDVIDIADIVDREPDEVADTYFALMDHLGADALLTAVSRLSRDDRWHSLARLAIRDDIYGSLRALCFDVLAVGEPDENGEEKIAEWETTNSSRVTRARRTLTEIYKDGEQDLATLSVAARQIRSMTRTSGTGTTG
modifications: seleno-methionine in place of methionine
notes: No cleavage of the His6 tag is described; Crystallised from a solution that also held an equimolar amount of GarA from M. tuberculosis, which was not found in the crystal; also called seleno-methionine (Se-Met) derivative of mL-GDH180
Turning to B1, in data set [1], the “stoichiometry N” value worked out at 4.

B2: native mL-GDH180 (mycobacterial large glutamate dehydrogenase of 180 kDa subunits from Mycobacterium smegmatis MC2-155) (enzyme, UniProt A0R1C2 1-1594, looked up)
chain: B1 chain
notes: NAD-dependent large glutamate dehydrogenase (L-GDH180), Mycobacterium smegmatis MC2-155, MSMEG_4699, Uniprot A0R1C2; No cleavage of the His6 tag is described; Only residues 500-1588 are modelled in the cryo-EM coordinates (7A1D); also called L-GDH180 from M. smegmatis; MSMEG_4699; source: E. coli BL21(DE3) grown in LB broth, purified (HisTrap HP, Superose 6 size-exclusion chromatography)
For B2, the “stoichiometry N” value in data set [2] is 4.

The values above are taken from article PMC8175468, “3D architecture and structural flexibility revealed in the subfamily of large glutamate dehydrogenases by a mycobacterial enzyme” (Communications Biology, 2021).
